Laboratory results as given in patent publication US20080090254.

Target: GST-poly(Glu, Tyr) substrate
Sequence (chain, as listed by the source): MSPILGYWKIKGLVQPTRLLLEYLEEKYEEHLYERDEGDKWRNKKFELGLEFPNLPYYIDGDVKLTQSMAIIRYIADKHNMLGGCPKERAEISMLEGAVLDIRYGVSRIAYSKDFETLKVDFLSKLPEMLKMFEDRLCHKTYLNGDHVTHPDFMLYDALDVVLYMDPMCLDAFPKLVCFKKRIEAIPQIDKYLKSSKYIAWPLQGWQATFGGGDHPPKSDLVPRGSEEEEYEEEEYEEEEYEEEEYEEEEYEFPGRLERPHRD

B1: ErbB4 Kinase (protein)
chain: RRKSIKKKRALRRFLETELVEPLTPSGTAPNQAQLRILKETELKRVKVLGSGAFGTVYKGIWVPEGETVKIPVAIKILNETTGPKANVEFMDEALIMASMDHPHLVRLLGVCLSPTIQLVTQLMPHGCLLEYVHEHKDNIGSQLLLNWCVQIAKGMMYLEERRLVHRDLAARNVLVKSPNHVKITDFGLARLLEGDEKEYNADGGKMPIKWMALECIHYRKFTHQSDVWSYGVTIWELMTFGGKPYDGIPTREIPDLLEKGERLPQPPICTIDVYMVMVKCWMIDADSRPKFKELAAEFSRMARDPQRYLVIQGDDRMKLPSPNDSKFFQNLLDEEDLEDMMDAEEYLVPQAFNIPPPIYTSRARIDSNRSEIGHSPPPAYTPMSGNQFVYRDGGFAAEQGVSVPYRAPTSTIPEAPVAQGATAEIFDDSCCNGTLRKPVAPHVQEDSSTQRYSADPTVFAPERSPRGELDEEGYMTPMRDKPKQEYLNPVEENPFVSRRKNGDLQALDNPEYHNASNGPPKAEDEYVNEPLYLNTFANTLGKAEYLKNNILSMPEKAKKAFDNPDYWNHSLPPRSTLQHPDYLQEYSTKYFYKQNGRIRPIVAENPEYLSEFSLKPGTVLPPPPYRHRNTVV
phosphorylation of the substrate, Western blotting with anti-phosphotyrosine: At + of all (i to vii) of FIG. 1, a single band was seen at positions where the phosphorylated GST-poly (Glu, Tyr) substrate appears

B2: IGF-1Receptor Kinase (protein)
chain: RKRNNSRLGNGVLYASVNPEYFSAADVYVPDEWEVAREKITMSRELGQGSFGMVYEGVAKGVVKDEPETRVAIKTVNEAASMRERIEFLNEASVMKEFNCHHVVRLLGVVSQGQPTLVIMELMTRGDLKSYLRSLRPEMENNPVLAPPSLSKMIQMAGEIADGMAYLNANKFVHRDLAARNCMVAEDFTVKIGDFGMTRDIYETDYYRKGGKGLLPVRWMSPESLKDGVFTTYSDVWSFGVVLWEIATLAEQPYQGLSNEQVLRFVMEGGLLDKPDNCPDMLFELMRMCWQYNPKMRPSFLEIISSIKEEMEPGFREVSFYYSEENKLPEPEELDLEPENMESVPLDPSASSSSLPLPDRHSGHKAENGPGPGVLVLRASFDERQPYAHMNGGRKNERALPLPQSSTC
phosphorylation of the substrate, Western blotting with anti-phosphotyrosine: At + of all (i to vii) of FIG. 1, a single band was seen at positions where the phosphorylated GST-poly (Glu, Tyr) substrate appears

B3: PDGF Receptor β Kinase (protein)
chain: RYEIRWKVIESVSSDGHEYIYVDPMQLPYDSTWELPRDQLVLGRTLGSGAFGQVVEATAHGLSHSQATMKVAVKMLKSTARSSEKQALMSELKIMSHLGPHLNVVNLLGACTKGGPIYIITEYCRYGDLVDYLHRNKHTFLQHHSDKRRPPSAELYSNALPVGLPLPSHVSLTGESDGGYMDMSKDESVDYVPMLDMKGDVKYADIESSNYMAPYDNYVPSAPERTCRATLINESPVLSYMDLVGFSYQVANGMEFLASKNCVHRDLAARNVLICEGKLVKICDFGLARDIMRDSNYISKGSTFLPLKWMAPESIFNSLYTTLSDVWSFGILLWEIFTLGGTPYPELPMNEQFYNAIKRGYRMAQPAHASDEIYEIMQKCWEEKFEIRPPFSQLVLLLERLLGEGYKKKYQQVDEEFLRSDHPAILRSQARLPGFHGLRSPLDTSSVLYTAVQPNEGDNDYIIPLPDPKPEVADEGPLEGSPSLASSTLNEVNTSSTISCDSPLEPQDEPEPEPQLELQVEPEPELEQLPDSGCPAPRAEAEDSFL
phosphorylation of the substrate, Western blotting with anti-phosphotyrosine: At + of all (i to vii) of FIG. 1, a single band was seen at positions where the phosphorylated GST-poly (Glu, Tyr) substrate appears

B4: VEGF Receptor 1 Kinase (protein)
chain: RKMKRSSSEIKTDYLSIIMDPDEVPLDEQCERLPYDASKWEFARERLKLGKSLGRGAFGKVVQASAFGIKKSPTCRTVAVKMLKEGATASEYKALMTELKILTHIGHHLNVVNLLGACTKQGGPLMVIVEYCKYGNLSNYLKSKRDLFFLNKDAALHMEPKKEKMEPGLEQGKKPRLDSVTSSESFASSGFQEDKSLSDVEEEEDSDGFYKEPITMEDLISYSFQVARGMEFLSSRKCIHRDLAARNILLSENNVVKICDFGLARDIYKNPDYVRKGDTRLPLKWMAPESIFDKIYSTKSDVWSYGVLLWEIFSLGGSPYPGVQMDEDFCSRLREGMRMRAPEYSTPEIYQIMLDCWHRDPKERPRFAELVEKLGDLLQANVQQDGKDYIPINAILTGNSGFTYSTPAFSEDFFKESISAPKFNSGSSDDVRYVNAFKFMSLERIKTFEELLPNATSMFDDYQGDSSTLLASPMLKRFTWTDSKPKASLKIDLRVTSKSKESGLSDVSRPSFCHSSCGHVSEGKRRFTYDHAELERKIACCSPPPDYNSVVLYSTPPI
phosphorylation of the substrate, Western blotting with anti-phosphotyrosine: At + of all (i to vii) of FIG. 1, a single band was seen at positions where the phosphorylated GST-poly (Glu, Tyr) substrate appears
